Results from the nanobody polyreactivity screen of Harvey et al. (2022).

Test: yeast display, Sf9 membrane polyspecificity reagent, FACS + sequencing; frameworks hold sequencing errors
How it was run: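 Using colony PCR, genes from sorted yeast display clones were amplified, then sequenced on MiSeq at 2 × 250 and filtered by CDR length. The clones had been stained with 10% biotinylated, detergent-solubilized Sf9 membrane reagent for 1 hour at 4 °C and sorted by FACS into low and high (top ~1%) gates on anti-HA and streptavidin fluorescence. Polyreactivity labels come from the gate of origin.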

Sequence	polyreactivity (PSR sort gate)
QVQLVESGGGLVQAGGSLRLSCADSGFTFPSYTMGWYRQAPGKERDLDASIRVSGGRTYYADSVKGRFTISRDNAKNTVYLQMNSLKPEDTAVYYCAADYMTWWGGRYDYWGQGTQVTVSS	high polyreactivity
QVQLVESGGGLVQAGGSLRLSCAASGFTFPVNAMGWYRQAPGKERELVATINSGGSTNYADSVKGRFTISRDNAKNTVYLQMNSLKPEDTAVYYCAAAKRTADYASYWYVENDYWGQGTQVTVSS	low polyreactivity
QVQLVESGGGLVQAGGSLRLSCAASGFAFSYYAMGWYRQAPGKEREFVASIDWSGGSTYYADSVKGRFTISRDIAKTTVYLQMNRLKPEDTAVYYCAAELDYFPGYDYWGQGTQVTVSS	low polyreactivity
QVQLVESGGGLVQAGGSLRLSCAASGFIFAYYAMGWYRQAPGKERELVAGINRTGSTNYADSVKGRFSISRDNAKNTVYLQMNSLKPEDTAVYYCAARGYRSGGGYNYWGQGTQVTVSS	high polyreactivity
QVQLEESGGGLVQAGGSIRLSCAASGSIFYKYVMGCYRQAPGKERELVAAISRGGGSTYYADSVKGRFTISRDNSKNTVYLQMNSLKPEDTAVYYCNAVVRPRYGHGFDHWGQGTQVTVSS	high polyreactivity
QVQLVESGGGLVQAGGSLRLSCSASGRNFWFYAKGWYRQAPGKERELVAAISSGGSTNYADSVKGRFTISRDNAKNTVYLQMNSLKPEDTAVYYCAKVGNIPYGTRYYSNRYDYWGQGTLVTVSS	low polyreactivity
QVQLVESGGGLVQAGGSLRLSCAASGITITTYAMGWYRQAPGKERELVAAISSASSTYYADSVKGRFTISRDNAKNTVYLQMNSLKPEDTAVYYCAARVFKKYRPSGRYYYWGQGTQVTVSS	high polyreactivity
QVQLVESGGGLVQAGGSLRLSCAASGSTFRPNAMGWYRQAPGKERELVAGISLNGTSTYYADSVKGRFTISRDNAKNTVYLQMNSLKPEDTAVYYCAADYQCGRGAEPYVFFDPEMDYWGQGTQVTVSS	low polyreactivity
QVQLVESGGGLVQAGGSLRLSCAASGSTFGPYVMGWYRQAPGKERELVAAISRIGGRTYYADSVKGRFTISRDNAKNTVYLQMNSLKPEDTAVYYCAAKVGLYGDDYWGQGTQVTVSS	high polyreactivity
QVQLVESGGGLVQAGGSLRLSCAASGFTFRWYAMGWYRQAPGKERELVAAISSGGGSTYYADSVKGRFTISRDNAKNTVYLQMNSLKPEDTAVYYCNARIQYFKYRGYEYWGQGTQVTVSS	high polyreactivity
QVQLVESGGGLVQAGGSLRLSCAASGRTFYGNAMGWYRQAPGKERELVAAITTGGGNTYYADSVKGRFTISRDHAKNTVYLQMNRLKPEDTAVYYCAAYERKFYTVSRWYKLDYWGQGTQVTVSS	high polyreactivity
QVQLVESGGGLVQAGGSLRLSCAASGFIFGDYAMGWYRQAPGKERELVAAINYSGGSTYYADSVKGRFTISRDNAKNTGYLQMNSLKPEDTAVYYCAALIYGLVGWGQGTQVTVSS	low polyreactivity
QVQLVESGGGLVQAGGSLRLSCASSGRTFAYNALGWYREAPGKERELVAAISASGGSTYYADSVKGRFTISRDNAKNTVYLQMNSLKPEDTAVYYCAAYVRSAYYAIHVDYWGQGTQVTVSA	low polyreactivity
QVQLHESGGGLVQAGGSLRMSCAASGTISYAGPMGWYLQATGKESEFVAGIGVGSNTNYADSVKGRYTIIRDNAINTLYLQLNSLQPEDTAVYYGAVGGYAPLGRPYWGQGTQVTVRS	low polyreactivity
QVQLVESGGGLVQAGGSLRLSCAASGFTFYKYTMGWYRQAPGKERELVAAISARGGSTYYADSVKGRFTISRDNAKNTVYLQMNSLKPEDTSVYYCAADFWRTYGLGYDYWGQGTQVTVSS	high polyreactivity
QVQIVESGGGLVQAGGSLRLSCAASGYIFSVYAMGWYRQAPGKERELVAAITFRTGRTYYADSVKWRFTISRDNAKNTVYLQMNSLKPEDTAVSYCAADGYWTTFYNLYGYWGQGTQVTVSS	high polyreactivity
QVQLVESGGGLVQAGGSLRLSCAASGRTFETYAMGWYRQAPGKERELVATIRSSGSTNYADSVKGRFTISRDNAKNTVYLQMNSLKPEDTAVYYCAAVYVYRTSYLISLYDYGYWGQGTQVTVSS	high polyreactivity
QVQLVESGGGLVQAGGSLRLSCAAYGSTLATNAMGWYRPAPGKERELVAYADSVKGRFTISRDNAKNTVYLQMNSLKPEDTAVYYCAKDALVIDGGGGYDYWGQGTQVTVSS	low polyreactivity
QVQLVESGGGLVQAGGSLRLSCAASGRTFYTYAMGWNRQAPGKEREFVAAITGSGGSTYYADSVKWRFTISRDNAKNTVYLQMTSLKPDDRAVYYCNAGSPGDVWYYYWGQGTQVTVSS	low polyreactivity
QVQLVESGGGLVQAGGSLRLSCAASGSTFYRNAMGWYRQAPGKEREFVAAISFRGGGTYADSVKGRFTISRDNAKNTVYLQMNSLKPEDTAVYYCAADYSVYWLDYGYWGQGTQVTVSS	low polyreactivity
QVQLVESGGGLVQAGGSLRLSCAASGFTLGSNVMGWYRQAPGKERELVAGISQSGGRTFYADSVKGRFTISRDNAKNTVYLQMNSLKPEDTAVYYCNAYRYYSPYGYWGQGTQVTVSS	low polyreactivity
QVQLVESGGGLVQAGGSLRLSCAASGFTFLWYGMGWYRQAPGKERELVAAISSSGGSTYYADSVKGRFTISRDNAKNTVFLQMNSLKPEDTAVYYCAVAVSNQYVRYGYWGQGTQVTVSS	low polyreactivity

Sequence	polyreactivity (PSR sort gate)
QVQLVESGGGLVQAGGSLRLSCAASGSIISYYAMGWYRQAPGKERELVAAISWSGGSTYYADSVKGRFTISRDNAKNTVYLQMNSLKPEDTAVYYCNTVRRLKRYSSYGHDYWGQGTQVTVSS	high polyreactivity
QVQLVETGGRIVQAGGSLRLSCAASGRIMDTNAMGWYRQAPGKEREFVAAITWIDGSTYYADSVKGRFTISRDNATNTVYLQMNSLKPEDTAVYYWNVQYTVDRYPSPPYSETGDYWGQGTQVTVSS	low polyreactivity
QVQLVESGGGLVQAGGSLRVSCAASGRIFVDYAMGWYRQAPGKERELVAAISRRGGSTYYADSVKGRFTISRDNAKNTVYLQMNSLKPEDTAVYYCNALVNSGGGYGATEYDYWGQGTQVTVSS	high polyreactivity
QVQLVESGGGLVQAGGRLRISCAASGSTFLDNAMGWYRQAPGKERELVASITSSGGNTYYADSVKGRFTISRDNAKNTVYLQMNRLKPEDTAVYYCAADAASYWGSNSANYDYDYWGQGTQVTVSS	low polyreactivity
QVQLVESGGGLVQAGGSLRLSCAASGFNFPDYAMGWYRQAPGKETELVAAITSAGGRTYYADSVKGRFTISRDNAKNTVYLQMNSLKPEDTAVFYCNALTTKGTGTYNGGYWGEGTQVTVSS	high polyreactivity
QVQLVESGGGLVQAGGSLRLSCAASGLTFRWYAMGWYRQAPGKEREWVAAISSGGRTYYADSVKGRFTISRDNAKNTVYLHMNSLKPEDTAVYYCNKRTLDYGFGSYGRDYWGQGTQVTVSS	high polyreactivity
QVQLVESGGGLVQAGGSLRLSCAASGSTLVWNAMGWYRQAPGKERELVAGITTSGGSTSYADSVKGRFTISRDNAKNTVYLQMNSLKQEDTAVYYCAVDAAIYTNKLDYWGQGTQVTVSS	low polyreactivity
QVQLVESGGGLVQAGGSLRLSCAASGFTFTYNTMGWYRQAPGKERELVAAISALGTSTYYADSVKGRFTISRDNAKNTVYLQMNSLKPEDTEVYYCAAAYRIGSGYWGQGTQVTVSS	high polyreactivity
QVQLVESRGGLVQAGGSLRLSCAASAFTFDYYVMGWYIQAPGKERELVAAISLRSGRTYYADSVKGRFTISRDNAKNTVYLQMNSLKPEDTAVYYCAAESRGVGAYYYWGQGTQLTVSS	high polyreactivity
QVQLVESGGGLVQAGGSLRLSCAASGRTFYGYAMGWYRQAPGKERELVASISRDGSTNYADSVKGRFTISRDNAKNTVYLQMYSLKPEDTAVYYCAADIWYYRYPIYYYSYDYWGQGTQVTVSS	low polyreactivity
QVQLVESGGGLVQAGRSLRLSCAASGRTFCYYAMGLYRKAPGKERELIAAITNRGGNTYYADSVKGRFTISRDNAKNTVYLQMNSLKPEDTAVYYCAAYNRIYGYHTLYYWGQGTQVTVST	high polyreactivity
QVQLVESGGGLVQAGGSLRLSCAASGFIFGFYAMGWYIQAPGKERELVAAISGGGGRTNYADSVKGRFTISRDYAKNTVYLQMNSLNPEDTAVYYCAATPGRRRYRYYYWGQGTQVTVSS	high polyreactivity
QVQLVESGGGLVQAGGSLRLSCAASGLIFRVYAMGWYRQAPGKERELVATITRGGRTYYADSVKGRFTISRDNAKNTVYLQMNSLKPEDTAVYYCAVLSVRRSYNYWGQGTQVTVSS	high polyreactivity
QVQLVESGGGLVQAGGSLRLSCAASGSTFYRYAMGWYRQAPGKERELVATIRSSGDSTNYADSVKGRFTISRDNAKNTVYLQMNSLKPEDTAVYYCAKYGKYTWRQGGYWGQGTQVTVSS	high polyreactivity
QVQLGESGGGLVQAGGSLRLSCAASGRIFASNAMGWYRPAPGKESELVAAIDQSGGSTYYADSVKGRFTISRDNAKNTVYLQMNSLKPEDTAVYYCAARAYLISSSTPFWTGYDSWGQGTQVTVSS	low polyreactivity
QVQLVESGGGLVQAGGSLRLSCAASGRIFDSYAMGWYRQAPGKERELVAVISNNDGTTYYADSVKGRFTISRDNAKTTVYLQMNSLKPEDTAVYYCNAVYSSGVDGSEGFDYWGQGTQVTVSS	low polyreactivity
QVQLVESGGGLVQAGGSLRLSCAASGFTFVGYPLGWYRQATGKERELVAAISVSGGRTYYADSVKGRFTISRDNAMNTVYLQMKSLNPEDTAVYYCNAASPSYADFDYWGQGTQVTVSS	high polyreactivity
QVQLVESGGGLVQAGGSLRLSCAASGITFPYYAMGWYRQAPGKERELVAAISAGGTRTYYADSVKGRFTISRDNAKNNVYLQMNSLKPEDTAVYYCAARVWPIVQNYYWGQGTQVTVSS	high polyreactivity
QVQLVESGGGLVQAGGSLRLSCAASGSTFGDYAMGWYRQAPGKERELVAAITIGGITTYADSVKGRFTISRDNAKNTVYLQMNSLKPEDTAVYYCNADDYQYKTWYHLDYWGQGTQVTVSS	low polyreactivity
QVQLEESGGGLVQAGGSLRLSCAASGRTFAYYFMGWYRQAPGKERQLVAAISGSGGSTYYADSVKGRFTISRDNAKNTVYLQMNSLKPEDTAVYYCAAQYAYGGYDYWGQGTQVTVSS	high polyreactivity
QVQLVESGGGLVQAGGSLRLSCAASGRTFTYNAMGWYRQAPGKDRELVASIRRSGTITYSADSVKGRFTISRDNAKNTVYLQMNSLKPEDTAVYYCAARYPWYRYYSWGQGTQVTVSS	high polyreactivity
